Assay results: PMC3017772, “The CaaX specificities of Arabidopsis protein prenyltransferases explain era1 and ggb phenotypes” (BMC Plant Biology, 2010)

B1: PFT (protein farnesyltransferase; PLP + ERA1) (Arabidopsis thaliana) (protein)
chain 1: PVVTRLIRLKCVGLRLDRSGLNRRICHGGHGESTRRRVMEELSSLTVSQREQFLVENDVFGIYNYFDASDVSTQKYMMEIQRDKQLDYLMKGLRQLGPQFSSLDANRPWLCYWILHSIALLGETVDDELESNAIDFLGRCQGSEGGYGGGPGQLPHLATTYAAVNALVTLGGDKALSSINREKMSCFLRRMKDTSGGFRMHDMGEMDVRACYTAISVASILNIMDDELTQGLGDYILSCQTYEGGIGGEPGSEAHGGYTYCGLAAMILINEVDRLNLDSLMNWAVHRQGVEMGFQGRTNKLVDGCYTFWQAAPCVLLQRLYSTNDHDVHGSSHISEGTNEEHHAHDEDDLEDSDDDDDSDEDNDEDSVNGHRIHHTSTYINRRMQLVFDSLGLQRYVLLCSKIPDGGFRDKPRKPRDFYHTCYCLSGLSVAQHAWLKDEDTPPLTRDIMGGYSNLLEPVQLLHNIVMDQYNEAIEFFFKAA
chain 2: not shown
notes: alpha/beta heterodimer co-expressed in E. coli Rosetta (pETDuet-1); N-terminal FLAG on PLP, N-terminal 6xHis on ERA1 (MHHHHHH-PVVTRLI from primer), tags kept; Co2+-IMAC purified
B2: PGGT1 (protein geranylgeranyltransferase type 1; PGGT I; PLP + GGB) (Arabidopsis thaliana) (protein)
chain 1: SETAVSIDSDRSKSEEEDEEEYSPPVQSSPSANFEKDRHLMYLEMMYELLPYHYQSQEINRLTLAHFIISGLHFLGARDRVDKDVVAKWVLSFQAFPTNRVSLKDGEFYGFFGSRSSQFPIDENGDLKHNGSHLASTYCALAILKVIGHDLSTIDSKSLLISMINLQQDDGSFMPIHIGGETDLRFVYCAAAICYMLDSWSGMDKESAKNYILNCQSYDGGFGLIPGSESHGGATYCAIASLRLMGYIGVDLLSNDSSSSIIDPSLLLNWCLQRQANDGGFQGRTNKPSDTCYAFWIGAVLKLIGGDALIDKMALRKFLMSCQSKYGGFSKFPGQLPDLYHSYYGYTAFSLLEEQGLSPLCPELGLPLLAAPGI
chain 2: not shown
notes: alpha/beta heterodimer co-expressed in E. coli Rosetta (pETDuet-1); N-terminal FLAG on PLP, N-terminal 6xHis on GGB (MHHHHHH-SETAVSI from primer), tags kept; Co2+-IMAC purified

How the values were obtained:
Assay in all cases: radiometric filter prenylation assay, Lineweaver-Burk
Assay type in all cases: biochemical, Arabidopsis thaliana
[1] = substrate: CC(C)=CCC/C(C)=C/CC/C(C)=C/CC/C(C)=C/COP(=O)(O)OP(=O)(O)O; conditions: co-substrate GFP-BD-CVIQ, 50 mM Hepes pH 7.5, 20 mM MgCl2, 5 mM ZnCl2, 5 mM DTT, 0.1% Zwittergent, 30°C, labelled compound
Text: (§1) radiometric filter prenylation assay, Lineweaver-Burk on PFT (protein farnesyltransferase; PLP + ERA1)

[2] = substrate: CC(C)=CCC/C(C)=C/CC/C(C)=C/CO[P@@](=O)(O)OP(=O)(O)O; conditions: co-substrate GFP-BD-CVIQ, 50 mM Hepes pH 7.5, 20 mM MgCl2, 5 mM ZnCl2, 5 mM DTT, 0.1% Zwittergent, 30°C, labelled compound
Text: as §1

[3] = substrate: CC(C)=CCC/C(C)=C/CC/C(C)=C/CC/C(C)=C/COP(=O)(O)OP(=O)(O)O; conditions: co-substrate GFP-BD-CVIL, 50 mM Hepes pH 7.5, 20 mM MgCl2, 5 mM ZnCl2, 5 mM DTT, 0.1% Zwittergent, 30°C, labelled compound
Text: (§2) radiometric filter prenylation assay, Lineweaver-Burk on PGGT1 (protein geranylgeranyltransferase type 1; PGGT I; PLP + GGB)

[4] = substrate: CC(C)=CCC/C(C)=C/CC/C(C)=C/CO[P@@](=O)(O)OP(=O)(O)O; conditions: co-substrate GFP-BD-CVIL, 50 mM Hepes pH 7.5, 20 mM MgCl2, 5 mM ZnCl2, 5 mM DTT, 0.1% Zwittergent, 30°C, labelled compound
Text: as §2

Protein | Km [1] [µM] | Km [2] [µM] | Km [3] [µM] | Km [4] [µM]
B1 | 0.7 ± 0.3 | 0.2 ± 0.1 |  | 
B2 |  |  | 0.8 ± 0.1 | 0.6 ± 0.5
